Data from patent US20130108602A1, “METHODS AND USES OF NUR77 AND NUR77 AGONISTS TO MODULATE MACROPHAGES AND MONOCYTES, AND TREAT INFLAMMATION, INFLAMMATORY DISEASE AND CARDIOVASCULAR DISEASE” (LA JOLLA INSTITUTE FOR ALLERGY AND IMMUNOLOGY, priority 2010, published 2013).

Legend:
Nur77 mRNA = assay: Nur77 (NR4A1) mRNA by real-time RT-PCR in human monocyte-derived macrophages; assay type: cell-based
Nur77 protein = Nur77 protein staining in primary human monocyte-derived macrophages; assay type: cell-based; settings: at 24 hours, Gal-3BP 10 μg/ml

B1: Gal-3BP: recombinant human galectin-3 binding protein (R&D) (protein, UniProt Q08380 19-585, looked up)
Galectin-3-binding protein: VNDGDMRLADGGATNQGRVEIFYRGQWGTVCDNLWDLTDASVVCRALGFENATQALGRAAFGQGSGPIMLDEVQCTGTEASLADCKSLGWLKSNCRHERDAGVVCTNETRSTHTLDLSRELSEALGQIFDSQRGCDLSISVNVQGEDALGFCGHTVILTANLEAQALWKEPGSNVTMSVDAECVPMVRDLLRYFYSRRIDITLSSVKCFHKLASAYGARQLQGYCASLFAILLPQDPSFQMPLDLYAYAVATGDALLEKLCLQFLAWNFEALTQAEAWPSVPTDLLQLLLPRSDLAVPSELALLKAVDTWSWGERASHEEVEGLVEKIRFPMMLPEELFELQFNLSLYWSHEALFQKKTLQALEFHTVPFQLLARYKGLNLTEDTYKPRIYTSPTWSAFVTDSSWSARKSQLVYQSRRGPLVKYSSDYFQAPSDYRYYPYQSFQTPQHPSFLFQDKRVSWSLVYLPTIQSCWNYGFSCSSDELPVLGLTKSGGSDRTIAYENKALMLCEGLFVADVTDFEGWKAAIPSALDTNSSKSTSSFPCPAGHFNGFRTVIRPFYLTNSSGVD
- time of peak Nur77 mRNA expression after addition (Nur77 mRNA; M-CSF-derived human macrophages (M0), Gal-3BP 10 μg/ml): 48 h
- NUR77 mRNA increase (Nur77 mRNA; M-CSF-derived human macrophages (M0), Gal-3BP 10 μg/ml, 0-72 hours, two independent studies): 3-4 fold
- NR4A1 expression induction (Nur77 mRNA; human primary macrophages, 6 hours after Gal-3BP, normalized to t=0, n=3): more than 6 fold
- Nur77 protein compared to control (Nur77 protein): massively increased
